Experimental data reported in patent publication US20090311265A1.

What was measured:
[1] = molecular target: recombinant HA, subtype H7 (A/Netherlands/219/03 (H7N7)) (influenza A virus A/Netherlands/219/03 (H7N7)); assay: ELISA, coated HA, IgG 5 µg/ml
[2] = molecular target: recombinant HA, subtype H9 (A/Hong Kong/1073/99 (H9N2)) (influenza A virus A/Hong Kong/1073/99 (H9N2)); assay: ELISA, coated HA, IgG 5 µg/ml

B1: CR6329 (antibody, V domains shown)
VH: EVQLVQSGAEVKKPGSSVKVSCKASGGIFRSNSISWVRQAPGQGLEWMGGIFALFGTTDYAQKFQGRVTITADESSTTVYLELSSLTSEDTAVYYCARGSGYTTRNYFDYWGQGTLVTVSS
VL: EIVLTQSPGTLSLSPGERATLSCRASQSVSSNYLGWYQQKPGQAPRLLIYGASSRASGIPDRFSGGGSGTDFTLTISRLEPEDFAVYYCQQYGSSPLTFGGGTKVEIKR
[1]
  OD 492 nm: 0.17 OD 492 nm
[2]
  OD 492 nm: 2.16 OD 492 nm
